Results on one molecule are retold here after paper doi:10.1101/2024.05.21.594841 (bioRxiv, 2024).

Where only a bound is given, the exact number is not on record here.

Holding throughout (test): split reporter
One test concerns the target T1, Mpd2p (S. cerevisiae, UniProt Q99316 23-277).
T1 sequence: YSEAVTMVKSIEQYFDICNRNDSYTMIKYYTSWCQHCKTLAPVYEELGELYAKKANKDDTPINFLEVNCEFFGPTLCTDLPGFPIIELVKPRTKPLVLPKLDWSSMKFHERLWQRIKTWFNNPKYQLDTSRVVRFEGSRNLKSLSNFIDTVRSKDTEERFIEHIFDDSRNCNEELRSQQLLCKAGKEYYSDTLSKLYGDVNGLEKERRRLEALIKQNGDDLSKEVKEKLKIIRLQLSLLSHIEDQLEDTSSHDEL

For another test, the target named is T2, Scj1p (S. cerevisiae, UniProt P25303 22-377).
T2 sequence: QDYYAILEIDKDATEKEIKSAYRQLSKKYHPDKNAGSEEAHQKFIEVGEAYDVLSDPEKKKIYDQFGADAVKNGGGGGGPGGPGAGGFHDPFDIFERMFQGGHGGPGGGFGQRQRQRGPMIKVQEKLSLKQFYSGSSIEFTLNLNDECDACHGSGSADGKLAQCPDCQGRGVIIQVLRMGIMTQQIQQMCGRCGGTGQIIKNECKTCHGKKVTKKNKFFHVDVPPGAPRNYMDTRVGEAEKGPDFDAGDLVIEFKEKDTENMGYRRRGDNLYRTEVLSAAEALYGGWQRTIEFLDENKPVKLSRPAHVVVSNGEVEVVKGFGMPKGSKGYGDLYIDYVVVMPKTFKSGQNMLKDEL

For a further test, the target named is Cpr5p (S. cerevisiae, UniProt P35176 23-225).
The next test addresses T3, Sec20p (S. cerevisiae, UniProt P28791 1-383).
T3 sequence: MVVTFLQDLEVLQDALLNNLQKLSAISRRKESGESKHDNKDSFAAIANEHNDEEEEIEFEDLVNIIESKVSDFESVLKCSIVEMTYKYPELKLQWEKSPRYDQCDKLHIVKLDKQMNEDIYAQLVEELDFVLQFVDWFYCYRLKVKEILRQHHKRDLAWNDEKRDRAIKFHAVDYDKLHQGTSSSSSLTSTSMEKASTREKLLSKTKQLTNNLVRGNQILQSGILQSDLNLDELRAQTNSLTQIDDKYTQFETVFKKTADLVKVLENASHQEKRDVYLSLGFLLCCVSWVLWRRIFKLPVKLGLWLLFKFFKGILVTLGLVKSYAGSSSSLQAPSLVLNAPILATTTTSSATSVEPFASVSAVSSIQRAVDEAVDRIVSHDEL

The next test addresses T4, Mpd1p (S. cerevisiae, UniProt Q12404 22-318).
T4 sequence: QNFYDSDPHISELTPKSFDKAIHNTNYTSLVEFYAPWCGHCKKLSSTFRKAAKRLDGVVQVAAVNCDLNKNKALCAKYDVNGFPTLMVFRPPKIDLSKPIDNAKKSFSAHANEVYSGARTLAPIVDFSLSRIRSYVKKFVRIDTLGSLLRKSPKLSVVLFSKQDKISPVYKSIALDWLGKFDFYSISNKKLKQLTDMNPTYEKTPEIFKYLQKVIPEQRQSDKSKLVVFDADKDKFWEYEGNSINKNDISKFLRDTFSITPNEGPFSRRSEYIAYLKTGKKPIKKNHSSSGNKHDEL

The target in a further test is T5, Sil1p (S. cerevisiae, UniProt Q08199 20-421).
T5 sequence: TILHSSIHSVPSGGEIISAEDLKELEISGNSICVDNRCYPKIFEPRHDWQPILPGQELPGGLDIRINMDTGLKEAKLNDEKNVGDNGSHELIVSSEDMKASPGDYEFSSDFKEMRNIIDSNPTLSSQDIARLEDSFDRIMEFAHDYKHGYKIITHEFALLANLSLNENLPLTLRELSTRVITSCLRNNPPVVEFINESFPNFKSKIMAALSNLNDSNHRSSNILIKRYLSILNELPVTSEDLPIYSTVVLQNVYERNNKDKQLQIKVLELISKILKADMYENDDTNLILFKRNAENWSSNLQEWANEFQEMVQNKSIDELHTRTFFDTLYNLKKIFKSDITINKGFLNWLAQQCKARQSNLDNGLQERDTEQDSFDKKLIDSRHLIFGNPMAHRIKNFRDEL

The target in a further test is Kar2p (S. cerevisiae, UniProt P16474 43-682).
Chain of Kar2p (P16474 43-682): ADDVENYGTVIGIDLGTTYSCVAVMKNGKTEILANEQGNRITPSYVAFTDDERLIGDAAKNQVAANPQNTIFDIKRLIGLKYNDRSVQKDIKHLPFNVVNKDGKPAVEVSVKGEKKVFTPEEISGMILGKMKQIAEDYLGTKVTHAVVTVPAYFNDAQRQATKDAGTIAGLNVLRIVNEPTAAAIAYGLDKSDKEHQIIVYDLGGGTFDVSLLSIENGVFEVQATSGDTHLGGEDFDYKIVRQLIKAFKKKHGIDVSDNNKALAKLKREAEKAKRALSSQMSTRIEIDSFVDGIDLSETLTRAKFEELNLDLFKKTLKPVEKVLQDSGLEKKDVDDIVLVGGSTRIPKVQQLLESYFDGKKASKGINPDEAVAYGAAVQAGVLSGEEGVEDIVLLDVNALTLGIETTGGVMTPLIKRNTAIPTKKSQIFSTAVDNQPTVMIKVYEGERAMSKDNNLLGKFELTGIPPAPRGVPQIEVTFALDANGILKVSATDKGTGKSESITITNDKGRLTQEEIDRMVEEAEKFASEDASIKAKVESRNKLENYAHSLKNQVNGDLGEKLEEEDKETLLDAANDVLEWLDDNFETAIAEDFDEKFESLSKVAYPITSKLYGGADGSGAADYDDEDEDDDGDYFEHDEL

Chain of Cpr5p (P35176 23-225): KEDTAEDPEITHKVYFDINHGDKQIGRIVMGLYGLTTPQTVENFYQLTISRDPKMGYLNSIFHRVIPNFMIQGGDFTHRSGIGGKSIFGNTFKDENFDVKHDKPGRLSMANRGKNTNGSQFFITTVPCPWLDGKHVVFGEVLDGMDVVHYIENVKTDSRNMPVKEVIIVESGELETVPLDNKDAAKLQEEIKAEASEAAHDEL

B1: Lhs1p (natural protein)
chain: AVLGVDYGQQNIKAIVVSPQAPLELVLTPEAKRKEISGLSIKRLPGYGKDDPNGIERIYGSAVGSLATRFPQNTLLHLKPLLGKSLEDETTVTLYSKQHPGLEMVSTNRSTIAFLVDNVEYPLEELVAMNVQEIANRANSLLKDRDARTEDFVNKMSFTIPDFFDQHQRKALLDASSITTGIEETYLVSEGMSVAVNFVLKQRQFPPGEQQHYIVYDMGSGSIKASMFSILQPEDTTQPVTIEFEGYGYNPHLGGAKFTMDIGSLIENKFLETHPAIRTDELHANPKALAKINQAAEKAKLILSANSEASINIESLINDIDFRTSITRQEFEEFIADSLLDIVKPINDAVTKQFGGYGTNLPEINGVILAGGSSRIPIVQDQLIKLVSEEKVLRNVNADESAVNGVVMRGIKLSNSFKTKPLNVVDRSVNTYSFKLSNESELYDVFTRGSAYPNKTSILTNTTDSIPNNFTIDLFENGKLFETITVNSGAIKNSYSSDKCSSGVAYNITFDLSSDRLFSIQEVNCICQSENDIGNSKQIKNKGSRLAFTSEDVEIKRLSPSERSRLHEHIKLLDKQDKERFQFQENLNVLESNLYDARNLLMDDEVMQNGPKSQVEELSEMVKVYLDWLEDASFDTDPEDIVSRIREIGILKKKIELYMDSAKEPLNSQQFKGMLEEGHKLLQAIETHKNTVEEFLSQFETEFADTIDNVREEFKKIKQPAYVSKALSTWEETLTSFKNSISEIEKFLAKNLFGEDLREHLFEIKLQFDMYRTKLEEKLRLIKSGDESRLNEIKKLHLRNFRLQKRKEEKLKRKLEQEKSRNNNETESTVINSADDKTTIVNDKTTESNPSSEEDILHDEL
Regarding B1, the normalized interacting score was > 40% in the test with Mpd2p; > 40% in the test with Scj1p; > 40% with Cpr5p; 20% with Sec20p; 18% in the test with Mpd1p; 93% with Sil1p. For the same molecule, the normalized interacting score with Kar2p amounted to 93%.
